Each block holds one binder with its values, some of them ahead of it.
Tests used:
Test in all cases: holdup assay
Design in all cases: key: below the threshold = too weak to quantify, mostly under pKd 3.1 to 4
[1] = target: DLG4_3, P78352
[2] = target: SCRIB_1, Q14160
[3] = target: MAGI2_5, Q86UL8
[4] = target: GRID2IP_1, A4D2P6
[5] = target: HTRA2, O43464
[6] = target: T1, SNTG2, Q9NY99
T1 sequence (Q9NY99 68-166, limits assumed, looked up): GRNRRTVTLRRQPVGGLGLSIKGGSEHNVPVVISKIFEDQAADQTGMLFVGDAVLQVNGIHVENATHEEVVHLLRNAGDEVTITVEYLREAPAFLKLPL

[7] = target: T2, CARD11, Q9BXL7
T2 sequence (Q9BXL7 662-765, limits assumed, looked up): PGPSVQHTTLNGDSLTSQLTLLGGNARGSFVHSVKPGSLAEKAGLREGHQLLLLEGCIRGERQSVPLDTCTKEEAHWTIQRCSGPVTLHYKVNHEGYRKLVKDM

[8] = target: T3, SYNJ2BP, P57105
T3 sequence (P57105 8-110, limits assumed, looked up): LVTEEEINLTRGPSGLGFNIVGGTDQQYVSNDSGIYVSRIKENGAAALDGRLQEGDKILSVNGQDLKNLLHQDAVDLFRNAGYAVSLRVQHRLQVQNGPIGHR

[9] = target: AHNAK1, Q09666
Chain of AHNAK1, Q09666 (Q09666 4-100): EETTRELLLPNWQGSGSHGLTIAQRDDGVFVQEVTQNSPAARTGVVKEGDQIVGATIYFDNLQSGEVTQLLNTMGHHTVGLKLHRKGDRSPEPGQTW

[10] = target: FRMPD2_2, Q68DX3
Chain of FRMPD2_2, Q68DX3 (Q68DX3 944-1038): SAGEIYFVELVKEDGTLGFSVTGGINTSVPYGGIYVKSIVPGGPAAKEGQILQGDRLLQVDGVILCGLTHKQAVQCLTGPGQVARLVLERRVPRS

[11] = target: NHERF2_2, Q15599
Chain of NHERF2_2, Q15599 (Q15599 142-238): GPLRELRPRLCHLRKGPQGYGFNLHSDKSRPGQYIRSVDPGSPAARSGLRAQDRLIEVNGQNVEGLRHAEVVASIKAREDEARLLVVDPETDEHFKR

[12] = target: DLG2_2, Q15700
Chain of DLG2_2, Q15700 (Q15700 189-283): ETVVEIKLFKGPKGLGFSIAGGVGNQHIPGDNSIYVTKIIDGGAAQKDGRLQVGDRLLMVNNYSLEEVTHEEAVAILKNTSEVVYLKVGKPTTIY

[13] = target: T4, SNTA1, Q13424
T4 sequence (Q13424 82-180, limits assumed, looked up): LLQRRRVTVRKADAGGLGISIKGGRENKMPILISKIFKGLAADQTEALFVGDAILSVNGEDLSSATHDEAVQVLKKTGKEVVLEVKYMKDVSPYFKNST

[14] = target: MAGI2_2, Q86UL8
Chain of MAGI2_2, Q86UL8 (Q86UL8 410-522): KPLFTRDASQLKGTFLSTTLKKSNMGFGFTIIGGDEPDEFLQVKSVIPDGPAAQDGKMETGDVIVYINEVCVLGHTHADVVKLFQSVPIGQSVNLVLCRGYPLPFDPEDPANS

[15] = target: T5, GRIP1_7, Q9Y3R0
T5 sequence (Q9Y3R0 999-1096, limits assumed, looked up): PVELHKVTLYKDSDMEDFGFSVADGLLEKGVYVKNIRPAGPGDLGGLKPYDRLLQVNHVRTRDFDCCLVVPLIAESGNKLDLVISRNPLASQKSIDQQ

[16] = target: GRIP2_7, Q9C0E4
Chain of GRIP2_7, Q9C0E4 (Q9C0E4 934-1023): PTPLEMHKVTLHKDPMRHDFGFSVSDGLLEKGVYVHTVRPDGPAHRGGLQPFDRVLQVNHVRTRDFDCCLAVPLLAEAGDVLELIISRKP

[17] = target: T6, APBA3_1, O96018
T6 sequence (O96018 389-490, limits assumed, looked up): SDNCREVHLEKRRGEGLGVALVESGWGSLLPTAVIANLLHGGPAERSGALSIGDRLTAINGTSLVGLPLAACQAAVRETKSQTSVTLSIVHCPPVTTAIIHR

[18] = target: DLG1_3, Q12959
Chain of DLG1_3, Q12959 (Q12959 457-571): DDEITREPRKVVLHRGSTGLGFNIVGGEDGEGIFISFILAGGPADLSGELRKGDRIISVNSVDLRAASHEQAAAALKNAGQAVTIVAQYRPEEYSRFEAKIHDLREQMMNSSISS

[19] = target: GORASP2, Q9H8Y8
[20] = target: GRIP2_5, Q9C0E4
Chain of GRIP2_5, Q9C0E4 (Q9C0E4 544-642): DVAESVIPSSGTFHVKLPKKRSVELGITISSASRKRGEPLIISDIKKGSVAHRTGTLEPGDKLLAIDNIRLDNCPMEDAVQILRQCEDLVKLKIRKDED

[21] = target: T7, TIAM2, Q8IVF5
T7 sequence (Q8IVF5 885-986, limits assumed, looked up): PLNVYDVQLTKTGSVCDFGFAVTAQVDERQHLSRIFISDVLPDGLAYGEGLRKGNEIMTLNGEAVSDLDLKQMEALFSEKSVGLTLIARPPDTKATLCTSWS

[22] = target: LDB3, O75112
Chain of LDB3, O75112 (O75112 1-94): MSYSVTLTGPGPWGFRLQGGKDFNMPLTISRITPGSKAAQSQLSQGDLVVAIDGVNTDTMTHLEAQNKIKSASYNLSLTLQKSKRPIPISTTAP

[23] = target: GORASP1, Q9BQQ3
Chain of GORASP1, Q9BQQ3 (Q9BQQ3 1-208): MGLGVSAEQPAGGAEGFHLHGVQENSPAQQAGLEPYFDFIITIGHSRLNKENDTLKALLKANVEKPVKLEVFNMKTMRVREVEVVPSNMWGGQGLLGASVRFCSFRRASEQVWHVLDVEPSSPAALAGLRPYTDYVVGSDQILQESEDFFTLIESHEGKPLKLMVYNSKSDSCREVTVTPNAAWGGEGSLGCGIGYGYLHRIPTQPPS

[24] = target: T8, MPDZ_12, O75970
T8 sequence (O75970 1857-1958, limits assumed, looked up): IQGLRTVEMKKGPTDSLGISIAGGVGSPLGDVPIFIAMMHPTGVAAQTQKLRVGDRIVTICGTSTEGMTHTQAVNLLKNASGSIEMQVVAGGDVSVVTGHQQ

[25] = target: MAST1, Q9Y2H9
Chain of MAST1, Q9Y2H9 (Q9Y2H9 962-1065): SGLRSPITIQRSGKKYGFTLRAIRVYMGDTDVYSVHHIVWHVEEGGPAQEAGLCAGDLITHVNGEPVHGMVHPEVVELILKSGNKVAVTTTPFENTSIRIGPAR

[26] = target: T9, LIN7C, Q9NUP9
T9 sequence (Q9NUP9 88-185, limits assumed, looked up): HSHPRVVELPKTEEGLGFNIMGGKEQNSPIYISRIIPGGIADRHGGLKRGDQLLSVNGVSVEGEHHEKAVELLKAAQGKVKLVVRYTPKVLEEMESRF

[27] = target: T10, HTRA3, P83110
T10 sequence (P83110 354-453, limits assumed, looked up): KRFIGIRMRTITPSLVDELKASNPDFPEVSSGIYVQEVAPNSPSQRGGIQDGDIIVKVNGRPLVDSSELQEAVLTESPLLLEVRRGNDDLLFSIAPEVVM

[28] = target: GRID2IP_2, A4D2P6
Chain of GRID2IP_2, A4D2P6 (A4D2P6 272-370): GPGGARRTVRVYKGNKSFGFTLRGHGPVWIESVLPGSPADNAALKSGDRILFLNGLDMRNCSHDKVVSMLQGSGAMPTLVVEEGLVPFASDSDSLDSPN

[29] = plain residues with an end cap or a label only (N-terminal biotin on a linker: ahx)
[30] = plain residues with an end cap or a label only (N-terminal biotin on a linker: ado-ado)

Chain of HTRA2, O43464 (O43464 355-458): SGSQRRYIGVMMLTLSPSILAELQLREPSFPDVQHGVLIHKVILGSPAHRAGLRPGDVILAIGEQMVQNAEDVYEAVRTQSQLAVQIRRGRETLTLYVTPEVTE
Chain of GRID2IP_1, A4D2P6 (A4D2P6 1-87): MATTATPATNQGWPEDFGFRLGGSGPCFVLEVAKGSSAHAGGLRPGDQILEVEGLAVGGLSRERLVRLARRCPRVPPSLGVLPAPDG
Chain of SCRIB_1, Q14160 (Q14160 718-814): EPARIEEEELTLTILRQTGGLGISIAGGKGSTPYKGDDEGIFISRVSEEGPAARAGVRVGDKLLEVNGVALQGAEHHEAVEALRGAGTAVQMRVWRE
Chain of DLG4_3, P78352 (P78352 306-403): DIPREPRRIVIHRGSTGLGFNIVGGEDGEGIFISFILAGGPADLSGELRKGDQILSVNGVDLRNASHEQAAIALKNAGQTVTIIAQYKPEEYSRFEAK
Chain of MAGI2_5, Q86UL8 (Q86UL8 915-1017): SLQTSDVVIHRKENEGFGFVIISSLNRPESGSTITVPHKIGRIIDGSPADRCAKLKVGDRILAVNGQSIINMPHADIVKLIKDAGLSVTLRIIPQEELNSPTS

pKd [1, 29]: 3.56
pKd [2, 29]: below the threshold
pKd [3, 29]: below the threshold
pKd [4, 29]: below the threshold
pKd [5, 29]: below the threshold
pKd [6, 29]: 3.6
pKd [7, 29]: below the threshold
pKd [8, 29]: below the threshold
pKd [9, 29]: 3.7
pKd [10, 29]: below the threshold
pKd [11, 29]: below the threshold
pKd [12, 29]: below the threshold
pKd [13, 29]: 3.56
pKd [14, 29]: 3.54
pKd [15, 29]: below the threshold
pKd [16, 29]: below the threshold
pKd [17, 29]: below the threshold
pKd [18, 29]: below the threshold
pKd [19, 29]: 3.55
pKd [20, 29]: below the threshold
pKd [21, 29]: below the threshold
pKd [22, 29]: 3.56
pKd [23, 29]: below the threshold
pKd [24, 29]: below the threshold
pKd [25, 29]: 3.65
pKd [26, 29]: 3.68
pKd [27, 29]: below the threshold
pKd [28, 29]: below the threshold
Binder: HNAFLSVTTV [PDZRN4, Q6ZMN7]

pKd [1, 30]: below the threshold
pKd [2, 30]: below the threshold
pKd [3, 30]: below the threshold
pKd [4, 30]: below the threshold
pKd [5, 30]: below the threshold
pKd [6, 30]: below the threshold
pKd [7, 30]: below the threshold
pKd [8, 30]: below the threshold
pKd [9, 30]: below the threshold
pKd [10, 30]: below the threshold
pKd [11, 30]: 3.86
pKd [12, 30]: below the threshold
pKd [13, 30]: below the threshold
pKd [14, 30]: below the threshold
pKd [15, 30]: below the threshold
pKd [16, 30]: below the threshold
pKd [17, 30]: below the threshold
pKd [18, 30]: below the threshold
pKd [19, 30]: below the threshold
pKd [20, 30]: below the threshold
pKd [21, 30]: below the threshold
pKd [22, 30]: below the threshold
pKd [23, 30]: below the threshold
pKd [24, 30]: below the threshold
pKd [25, 30]: 3.97
pKd [26, 30]: 3.82
pKd [27, 30]: below the threshold
pKd [28, 30]: below the threshold
Binder: PLSPEQPTKL [TRIM50, Q86XT4]

— PMC9482650, “Quantitative fragmentomics allow affinity mapping of interactomes” (Nature Communications, 2022)
